Target: the molecule itself
Assay: hydrogel formation (visual inspection, rheology); purified peptide dissolved in Millipore water at 0.5% or 1% (w/v); room temperature; gel seen at once (1%) or after overnight incubation (0.5%); rheology after 24 h; the analogue was followed for 72 h

B1: OVA257-264 octapeptide SIINFEKL (peptide)
peptide: SIINFEKL
notes: ovalbumin (OVA), residues 257-264; Assembles into nanofibrils and a hydrogel; the number of peptides in an assembly is not defined; source: synthetic peptide (Fmoc-SPPS, purified by RP-HPLC)
Q: Does B1 bind?
A: binds
